Measured values reported in paper PMC3672086, “TWEAK-Independent Fn14 Self-Association and NF-κB Activation Is Mediated by the C-Terminal Region of the Fn14 Cytoplasmic Domain” (PLoS ONE, 2013).

Molecular target: the molecule itself
Assay: cross-linking; cell surface proteins of transfected HEK293/NF-κB-luc/Fn14-HA cells cross-linked with 1 mM BS3 in PBS, 20 min, room temperature; lysis in HNTG buffer, reducing SDS-PAGE, anti-myc Western blot

B1: myc epitope-tagged Fn14 extracellular domain deletion (Fn14-ΔEC) (receptor, human, UniProt Q9NP84 28-129, looked up)
chain: EQAPGAAAPPAPFRLLWPILGGALSLTFVLGLLSGFLVWRRCRRREKFTTPIEETGGEGCPAVALIQ
notes: human Fn14 splice variant (exon 2 skipped), 94-aa precursor missing amino acids 33-67 of the extracellular domain; mature myc-tagged protein 77 aa; Cloned from U87-luc cell mRNA; natural splice variant mRNA, endogenous protein not detected by the authors; also called ΔEC mutant; short Fn14 isoform; source: HEK293 or HEK293/NF-κB-luc/Fn14-HA cells, transiently transfected (pcDNA6/Fn14-ΔEC), on …
  stoichiometry N: 2
